The values that follow come from PMC12120873, “Evening complex component ELF3 interacts with LUX proteins to repress soybean root nodulation”.

One series has as its target T1, LUX1-MBP (Glycine max, UniProt K7LTA3 1-306).
T1 sequence: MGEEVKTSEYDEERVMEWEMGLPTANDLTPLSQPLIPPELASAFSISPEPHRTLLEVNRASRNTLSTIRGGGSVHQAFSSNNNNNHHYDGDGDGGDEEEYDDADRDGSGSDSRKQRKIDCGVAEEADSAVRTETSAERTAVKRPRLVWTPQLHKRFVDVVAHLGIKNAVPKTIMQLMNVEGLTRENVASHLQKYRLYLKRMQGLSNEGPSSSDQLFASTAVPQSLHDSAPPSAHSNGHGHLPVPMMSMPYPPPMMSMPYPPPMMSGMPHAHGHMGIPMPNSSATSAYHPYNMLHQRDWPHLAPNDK
Description: EMSA; LightShift Chemiluminescent EMSA Kit (Pierce) binding buffer, composition, salt and pH not stated; room temperature 20 min; 6% native PAGE. The note with it: protein: recombinant; tags: MBP; label: biotin; blunt.

A further series has as its target T2, INN1-MBP (ELF3a) (Glycine max, UniProt K7KI62 1-714).
T2 sequence: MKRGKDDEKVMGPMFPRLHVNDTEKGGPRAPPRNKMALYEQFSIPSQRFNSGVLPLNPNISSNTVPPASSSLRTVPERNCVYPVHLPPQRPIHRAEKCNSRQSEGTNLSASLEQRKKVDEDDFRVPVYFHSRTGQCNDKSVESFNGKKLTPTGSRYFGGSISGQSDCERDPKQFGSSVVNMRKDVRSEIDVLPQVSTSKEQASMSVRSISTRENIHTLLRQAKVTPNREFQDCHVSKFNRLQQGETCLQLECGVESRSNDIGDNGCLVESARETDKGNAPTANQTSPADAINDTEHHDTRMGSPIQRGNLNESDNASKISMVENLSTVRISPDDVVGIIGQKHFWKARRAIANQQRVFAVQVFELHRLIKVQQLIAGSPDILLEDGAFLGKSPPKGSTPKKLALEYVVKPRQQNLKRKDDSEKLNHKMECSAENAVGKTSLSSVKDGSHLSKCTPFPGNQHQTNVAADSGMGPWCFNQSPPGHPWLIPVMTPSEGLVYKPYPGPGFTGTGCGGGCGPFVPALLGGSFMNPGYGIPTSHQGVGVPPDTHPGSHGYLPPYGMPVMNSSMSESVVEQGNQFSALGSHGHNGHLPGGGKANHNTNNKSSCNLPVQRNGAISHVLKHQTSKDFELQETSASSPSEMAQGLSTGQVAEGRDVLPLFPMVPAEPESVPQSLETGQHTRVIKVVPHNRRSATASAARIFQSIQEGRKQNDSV
The series can be described thus: EMSA; INN1 alone; probe taken to be the ENOD40 probe of Table S1; LightShift Chemiluminescent EMSA Kit (Pierce) binding buffer, composition, salt and pH not stated; room temperature 20 min; 6% native PAGE. Conditions: protein: recombinant; tags: MBP; label: biotin; blunt.

B1: probe-ENOD40 (P1 region) (dsDNA)
DNA 1: TTGACATTCATATCCTTTGTATTTCAATTAGATTAGATATGTTCTACGGA
DNA 2: TCCGTAGAACATATCTAATCTAATTGAAATACAAAGGATATGAATGTCAA
Consider B1, for which the binding result is recorded as “binds” in the series with LUX1-MBP and “no binding” with INN1-MBP (ELF3a).
